From patent publication US20260028391A1 (HUMABS BIOMED, published 2026)

How the values were obtained:
[1] = target: T1, MPV F D280N mutant expressed on Expi293F transfected cells (metapneumovirus (MPV), strain ); assay: FACS on Expi293F cells transfected with MPV-F D280N; mouse serum taken 2 h after injection
T1 construct: whole, on cells; also called MPV D280N F; D280N F

[2] = target: T1, MPV F D280N mutant expressed on …; assay: FACS on Expi293F cells transfected with MPV-F D280N; mouse serum taken 56 d after injection
[3] = target: RSV A Randall fusion glycoprotein (F) (RSV A, strain Randall); assay: cell-based or functional assay
RSV-B B9320 F protein = RSV-B B9320 F protein (RSV B, strain B9320); assay: cell-based or functional assay
[4] = target: fusion glycoprotein (F) of RSV A/A2/61 (respiratory syncytial virus A/A2/61, UniProt P03420 26-574); assay: cell-based or functional assay
[5] = target: fusion glycoprotein (F) of RSV B/9727 (respiratory syncytial virus B/9727); assay: cell-based or functional assay
[6] = target: fusion glycoprotein (F) of MPV A1/6621 (metapneumovirus A1/6621); assay: cell-based or functional assay
DS-Cav1 RSV F = target: T2, DS-Cav1 RSV F (respiratory syncytial virus); assay: ELISA on DS-Cav1 RSV F
T2 construct: also called DC-VCav1

[7] = target: fusion glycoprotein (F) of the RSV used in the GFP-based neutralization assay of Table 23 (respiratory syncytial virus); assay: cell-based or functional assay
[8] = target: fusion glycoprotein (F) of the MPV (non-D280N) used in the GFP-based neutralization assay of Table 23 (metapneumovirus); assay: cell-based or functional assay
[9] = target: T3, RSV fusion glycoprotein (RSV-F) (respiratory syncytial virus); assay: biolayer interferometry (BLI), rIgG1 with M428L/N434S
T3 construct: also called RSV-F wt

[10] = target: T4, MPV fusion glycoprotein without the D280N mutation (MPV-F D280) (metapneumovirus); assay: as above
T4 construct: also called MPV F Non-D280N; MPV-F wt

[11] = target: T5, MPV fusion glycoprotein with the D280N mutation (MPV-F N280) (metapneumovirus); assay: as above
T5 construct: also called MPV F D280N; MPV-F D280N

[12] = target: T3, RSV fusion glycoprotein (RSV-F); assay: SPR; F protein loaded on streptavidin sensors, mAb in solution
Experimental: (§1) Binding affinity of mAbs for RSV-F protein, MPV-F D280 protein, and MPV-F N280 F variant protein was assessed using surface plasmon resonance (SPR).

[13] = target: T4, MPV fusion glycoprotein without the …; assay: as above
Experimental: as §1

[14] = target: T5, MPV fusion glycoprotein with the D280N …; assay: as above
Experimental: as §1

[15] = target: T6, RSV fusion glycoprotein (RSV-F), pre-fusion conformation, recombinant protein loaded on sensors (respiratory syncytial virus (RSV), …); assay: method not said in the sentence; RSV-A as printed
T6 construct: also called RSV-F wt; RSV-F protein

[16] = target: T7, RSV F expressed on transfected Expi293F cells (respiratory syncytial virus (RSV)); assay: flow cytometry, transfected Expi293F cells, fixed and permeabilised
biot-RSV-F wt [17] = target: T8, biot-RSV-F wt (respiratory syncytial virus (RSV)); assay: BLI, SA sensor loaded with biot-RSV-F wt, mAb 5 ug/ml, 4 min association, 6 min dissociation
biot-RSV-F wt [18] = target: T8, biot-RSV-F wt; assay: BLI (Octet), biotinylated F on SA sensors, mAb 5 µg/ml
[19] = target: T7, RSV F expressed on transfected Expi293F …; assay: flow cytometry, transfected Expi293F cells, fixed and permeabilised; remark: listed apart in the source
biot-RSV-F wt [20] = target: T8, biot-RSV-F wt; assay: BLI, SA sensor loaded with biot-RSV-F wt, mAb 5 ug/ml, 4 min association, 6 min dissociation; remark: listed apart in the source
[21] = target: T6, RSV fusion glycoprotein (RSV-F), …; assay: same manner as Experiment 1 (Example 6, Experiment 4)

B1: MPK190 (antibody, V domains shown)
VH: EVQLVESGGGLVKPGGSLTLSCAASGFSISGYGMNWVRQAPGRGLEWVASISASSTYIYYADSMKGRFTISRDNGKTSLYLQMKSLRAEDTAVYYCARAPIEPPYFDLWGRGTLVTVSS
VL: QSVLTQPPSVSGAPGQRVTISCTGSNSNIGAGYDVHWYQHLPGKAPKVLIYGNNNRPSVVPDRFSGSNSGASASLAISGLQAEDEADYFCQSYDRRLSGPIFGGGTKLTVL
notes: Tested as MPK190-rIgG1-LS (IgG1 with M428L/N434S); also called MPK190-rIgG1-LS; MPK190-rIgG1-LS(4B6)
EC50 [1]: 0.062 µg/mL
EC50 [2]: 0.084 µg/mL

B2: MPH12 (antibody, IgG1, V domains shown)
VH: QVQLVESGGGLVKPGGSLRLSCVASGFTFSGFYMKWIRQAPGKGLEWVSSISASGSYTNYADSVEGRFTVSRDNAKNSLFLLMSSLRAEDTAVYYCARGDSYCGASACHGEFFHKWGQGTLVTVSS
VL: QSVLTQPPSVSGAPGQRVTISCTGSDSNIGADFDVHWYQQLPGTAPKLLIYGNINRPSGVPDRFSGSRSGTSAFLAITRLQAEDEADYYCQSYDRSLHYVFGAGTKVTVL
notes: also called WT; parental MPH12-wt
RSV IC50 (ng/ml), neutralization of A/Randall [3]: 23.1 ng/mL
RSV IC50 (ng/ml), neutralization of B/9320 (RSV-B B9320 F protein): 3.29 ng/mL
RSV IC50 (ng/ml), neutralization of A/A2 [4]: 142 ng/mL
RSV IC50 (ng/ml), neutralization of B/9727 [5]: 19.9 ng/mL
MPV IC50 (nM), neutralization of MPV A1/6621 [6]: 0.0671 nM
EC50 (DS-Cav1 RSV F): 0.0326 µg/mL
RSV IC 50 (ng/mL), GFP-based in vitro neutralization [7]: 47.7 ng/mL
MPV IC50 (ng/mL), GFP-based in vitro neutralization [8]: 24.6 ng/mL
Kd [9]: 0.42 nM
Kd [10]: 0.026 nM
Kd [11]: 1.1 nM
Kd [12]: 0.75 nM
Kd [13]: 0.001 nM
Kd [14]: 1.7 nM

B3: MPK65-v2 (antibody, human IgG1, V domains shown)
VH: QVPLVQSGAEVKKPGESLKISCKGSGYSFINYWIGWVRQMPGKGLEWMGVIYPFDSDTKYSPSFQGHVTISADKSSNTAYVQWSSLKASDTAMYYCARFTFGIAVVTDDVSGEGQAFEIWGQGTMVTVSS
VL: EIVMMQSPATLSVSPGERATLSCRASQSVAGNLAWYQQRPGQAPRLLIYGASTRATGVPARFSGSGSETEFTLTISSLQSEDFAVYYCHQYSNWPQAFGQGTRLDIK
notes: also called MPK65-v2-rIgG1-LS
Kd [15]: < 0.1 nM

B4: MPK51-v1.1-rIgG1m17,1-LS (antibody, V domains shown)
VH: QVQLVESGGGLVKPGGSLRLSCAASGFRISGYYMIWVRQAPGKGLEWISAISGMSSYITYADSVKGRFTVSRDNGQNSLFLEMKSLRGEDTAVYFCAREEVPSPGPFDLWGQGTPVTVSS
VL: QSVVTQPPSVSGAPGQRVTIFCTGSTSNIGAGYDVHWYQHLPGTAPRLLIFRNNNRPSGVPDRFSGFKSGTSASLAIIGLQVEDEADYYCQSYDRNMDGWAFGGGTKLTVL
notes: called the parental mAb (v1.1)
Binding (FACS) relative to parental mAb MPK51-v1.1 [16]: 1
Kd (biot-RSV-F wt [17]): < 0.001 nM

B5: MPK77-v1.1-rIgG1m17,1-LS (antibody, V domains shown)
VH: QVQLVESGGGLVKPGGSLRLSCAASKSFSGYYMIWIRQAPGRGLEWIADISGSSTYTDYADSVKGRFTISRDNTRNTLYLQMNSLRPEDTAVYYCATEQVPSPGPFDLWGPGTLVTVSS
VL: QSVLTQPPSVSGAPGQRVIISCTGSSSNIGAGYDVHWYQQFPGTSPKLLIYRNTNRPSGVPDRFSGFKSGASAALAITGLQAEDEADYYCQSYDRSLSGWAFGGGTKVTVL
notes: called the parental mAb (v1.1); also called MPK77-v1.1-rIgG1-LS
Kd (biot-RSV-F wt [18]): < 0.001 nM
Binding (FACS) relative to parental mAb MPK77-v1.1 [19]: 1
Kd (biot-RSV-F wt [20]): < 0.001 nM

B6: MPK36-v3 (antibody, V domains shown)
VH: EVQLVESGGGLVKPGGSLRLSCAASFTISGYYMIWIRQAPGKGLEWISYISGSSTYTNYADSVKGRFTISRDNGQNTLYLHMTSLRADDTALYYCATEQTPSPGPFDLWGQGTLVTVSS
VL: QTVVTQPPSVSGAPGQRVTISCSGTSSNIGAGYDVHWYQQFPGTSPKLLIYRNFNRPSGVPDRFSGSKSGSSASLAIAGLQAEDEADYYCQSYDKSLDGWVFGGGTKVTVL
notes: also called MPK36-v3-rIgG1-LS
Kd [21]: ~0.001 nM
